The labels stand for the following.
B1: Calvin cycle protein CP12, chloroplastic (Chlamydomonas reinhardtii), A6Q0K5 (parent)
chain: MMLTKSVVISRPAVRPVSTRRAVVVRASGQPAVDLNKKVQDAVKEAEDACAKGTSADCAVAWDTVEELSAAVSHKKDAVKADVTLTDPLEAFCKDAPDADECRVYED
partner: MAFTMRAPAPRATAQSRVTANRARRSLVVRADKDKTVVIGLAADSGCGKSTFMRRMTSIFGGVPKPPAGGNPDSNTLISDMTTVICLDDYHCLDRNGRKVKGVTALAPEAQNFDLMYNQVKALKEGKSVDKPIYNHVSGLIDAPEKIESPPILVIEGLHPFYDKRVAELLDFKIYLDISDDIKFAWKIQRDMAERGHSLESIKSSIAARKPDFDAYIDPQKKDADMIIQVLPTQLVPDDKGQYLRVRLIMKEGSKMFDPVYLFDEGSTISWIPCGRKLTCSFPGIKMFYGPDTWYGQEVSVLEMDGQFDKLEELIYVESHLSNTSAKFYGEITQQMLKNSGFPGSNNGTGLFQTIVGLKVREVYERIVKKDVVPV
B2: Calvin cycle protein CP12, chloroplastic (Chlamydomonas reinhardtii), A6Q0K5 (parent)
chain: B1 chain
partner: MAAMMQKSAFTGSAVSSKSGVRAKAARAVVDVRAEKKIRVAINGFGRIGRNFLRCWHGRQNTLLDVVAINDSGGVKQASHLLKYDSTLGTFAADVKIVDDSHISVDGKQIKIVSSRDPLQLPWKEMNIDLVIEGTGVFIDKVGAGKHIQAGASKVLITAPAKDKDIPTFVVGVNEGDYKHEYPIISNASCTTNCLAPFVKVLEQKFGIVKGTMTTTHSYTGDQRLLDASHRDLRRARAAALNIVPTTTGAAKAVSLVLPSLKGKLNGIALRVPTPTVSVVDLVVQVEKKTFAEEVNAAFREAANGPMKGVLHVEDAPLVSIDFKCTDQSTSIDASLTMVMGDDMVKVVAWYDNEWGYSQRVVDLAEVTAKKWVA

Variants of B1 are the subject of one assay. The conditions noted are these: with kppr_chlre PRKA.
Turning to P31S, the “effect of a mutation on the interaction” value is “decreasing interaction”.

Another assay covers variants of B2. The conditions noted are these: with g3pa_chlre GAPA.
For the variant K75S, the “effect of a mutation on the interaction” value is given as “decreasing interaction”.

These data come from IntAct's records for PubMed 24863370.
